Results from US20230265151A1, “GIP/GLP1 CO-AGONIST COMPOUNDS” (priority 2020, published 2023).

T1: human glucose-dependent insulinotropic polypeptide (GIP) receptor (human, UniProt P48546 22-466)
T1 sequence (looked up): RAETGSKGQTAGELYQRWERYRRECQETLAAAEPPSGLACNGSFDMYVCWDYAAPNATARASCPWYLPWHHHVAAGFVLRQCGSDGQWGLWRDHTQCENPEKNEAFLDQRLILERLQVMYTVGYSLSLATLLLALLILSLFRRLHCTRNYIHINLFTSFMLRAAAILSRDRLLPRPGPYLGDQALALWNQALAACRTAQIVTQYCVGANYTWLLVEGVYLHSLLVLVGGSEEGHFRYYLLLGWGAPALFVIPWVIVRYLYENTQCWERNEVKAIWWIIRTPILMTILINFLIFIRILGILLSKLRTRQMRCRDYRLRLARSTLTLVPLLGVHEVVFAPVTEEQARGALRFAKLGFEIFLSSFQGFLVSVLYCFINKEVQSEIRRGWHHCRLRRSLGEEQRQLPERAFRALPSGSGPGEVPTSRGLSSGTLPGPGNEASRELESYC


Legend:
Experiment in all cases: cell-based or functional assay
[1] = target: T1, human glucose-dependent insulinotropic …
human glucagon receptor = human glucagon receptor (human, UniProt P47871 26-477)
[2] = target: human glucagon-like peptide-1 (GLP-1) receptor (human, UniProt P43220 24-463)

Row | Binder | cAMP EC50 [1] | cAMP Emax [1] | cAMP EC50 (human glucagon receptor) | cAMP EC50 [2]
1 | YXEGTXTSDXSIXLDXKAQXXFIXXLIEGGKSSGAPPPS (Aib2, αMeF(2F)6, 4Pal10, αMeL13, Orn16, K17(Z), Aib20, 4Pal21, D-Glu24, αMeY25, K31(Z), C-terminal NH2; Z = AEEA2-(γ-Glu)-CO-(CH2)12-CO2H) [Example 157] | 0.0286 nM | 98.8% | > 9950 nM | 0.94 nM
2 | YXEGTXTSDXSIXLDXKAQXEFIXXLIEGGPSSGAPPPSK (Aib2, αMeF(2F)6, 4Pal10, αMeL13, Orn16, K17(Z), Aib20, D-Glu24, αMeY25, K40(Z), C-terminal NH2; Z = AEEA2-(γ-Glu)-(10-(4-carboxyphenoxy)decanoyl)) [Example 273] | 0.0166 nM |  | > 9950 nM | 2.08 nM
3 | YXEGTXTSDXSIXLDXIAQXKFIXXLIEGGPSSGAPPPSK (Aib2, αMeF(2F)6, 4Pal10, αMeL13, Orn16, Aib20, K21(Z), D-Glu24, αMeY25, K40(Z), C-terminal NH2; Z = AEEA2-(γ-Glu)-(11-(4-carboxyphenoxy)undecanoyl)) [Example 288] | 0.0219 nM |  | > 9950 nM | 0.354 nM
4 | YXEGTXTSDXSIXLDXIAQXKFIXXLIEGGPSSGAPPPSK (Aib2, αMeF(2F)6, 4Pal10, αMeL13, Orn16, Aib20, K21(Z), D-Glu24, αMeY25, K40(Z), C-terminal NH2; Z = AEEA2-(γ-Glu)-(10-(4-carboxyphenoxy)decanoyl)) [Example 276] | 0.0134 nM |  | > 9950 nM | 0.49 nM
5 | YXEGTXTSDXSIXLDXKAQXEFIXXLIEGGPSSGAPPPSK (Aib2, αMeF(2F)6, 4Pal10, αMeL13, Orn16, K17(Z), Aib20, D-Glu24, αMeY25, K40(Z), C-terminal NH2; Z = AEEA2-(γ-Glu)-(11-(4-carboxyphenoxy)undecanoyl)) [Example 285] | 0.0115 nM |  | > 9950 nM | 1.21 nM
6 | YXEGTXTSDXSIXLDXIAQXEFIKXLIKGGPSSGAPPPS (Aib2, αMeF(2F)6, hTyr10, αMeL13, Orn16, Aib20, K24(Z), αMeY25, K28(Z), C-terminal NH2; Z = AEEA2-(γ-Glu)-CO-(CH2)12-CO2H) [Example 270] | 0.0567 nM |  | > 9950 nM | 0.551 nM
7 | YXEGTXTSDXSIXLDXIAQXEFIKXLIKGGPSSGAPPPS (Aib2, αMeF(2F)6, 4Pal10, αMeL13, Orn16, Aib20, K24(Z), αMeY25, K28(Z), C-terminal NH2; Z = AEEA2-(γ-Glu)-(11-(4-carboxyphenoxy)undecanoyl)) [Example 286] | 0.0344 nM |  | > 9950 nM | 0.678 nM
8 | YXEGTXTSDXSIXLDXIAQXKFIXXLIKGGPSSGAPPPS (Aib2, αMeF(2F)6, 4Pal10, αMeL13, Orn16, Aib20, K21(Z), D-Glu24, αMeY25, K28(Z), C-terminal NH2; Z = AEEA2-(γ-Glu)-(11-(4-carboxyphenoxy)undecanoyl)) [Example 287] | 0.0189 nM |  | > 9950 nM | 0.563 nM
9 | YXEGTXTSDXSIXLDXIAQXKFIXXLIKGGPSSGAPPPS (Aib2, αMeF(2F)6, 2Nal10, αMeL13, Orn16, Aib20, K21(Z), D-Glu24, αMeY25, K28(Z), C-terminal NH2; Z = AEEA2-(γ-Glu)-(10-(4-carboxyphenoxy)decanoyl)) [Example 284] | 0.0389 nM |  | > 9950 nM | 0.505 nM
10 | YXEGTXTSDXSIXLDXKAQXKFIXXLIEGGPSSGAPPPS (Aib2, αMeF(2F)6, Nle10, αMeL13, Orn16, K17(Z), Aib20, K21(Z), D-Glu24, αMeY25, C-terminal NH2; Z = AEEA2-CO-(CH2)12-CO2H) [Example 271] | 0.0186 nM |  | > 9950 nM | 0.494 nM
11 | YXEGTXTSDXSIXLDXIAQXKFIXXLIKGGPSSGAPPPS (Aib2, αMeF(2F)6, OMeY10, αMeL13, Orn16, Aib20, K21(Z), D-Glu24, αMeY25, K28(Z), C-terminal NH2; Z = AEEA2-(γ-Glu)-(10-(4-carboxyphenoxy)decanoyl)) [Example 280] | 0.0229 nM |  | > 9950 nM | 0.346 nM
12 | YXEGTXTSDXSIXLDXKAQXKFIXXLIEGGPSSGAPPPS (Aib2, αMeF(2F)6, OMeY10, αMeL13, Orn16, K17(Z), Aib20, K21(Z), D-Glu24, αMeY25, C-terminal NH2; Z = AEEA2-(γ-Glu)-CO-(CH2)10-CH3) [Example 289] | 0.017 nM |  | > 9950 nM | 0.731 nM
